Target: T1, C-terminal hexa-histidine tagged P. aeruginosa WaaP (1–264) (P. aeruginosa, UniProt Q9HUF7 1-264, selenomethionine substituted)
T1 construct: WaaP, lipopolysaccharide core heptose kinase of Pseudomonas aeruginosa (strains derived from PAO1), residues 1-264; A loop (54-72) is disordered in the crystal; also called WaaP-His; LPS heptose kinase WaaP; source: E. coli BL21(DE3)/pLysS, pET21b-waaP, purified (IMAC, Mono-Q, CM-sepharose, Superdex75); not shown: His6, C-terminal, kept
T1 sequence (looked up): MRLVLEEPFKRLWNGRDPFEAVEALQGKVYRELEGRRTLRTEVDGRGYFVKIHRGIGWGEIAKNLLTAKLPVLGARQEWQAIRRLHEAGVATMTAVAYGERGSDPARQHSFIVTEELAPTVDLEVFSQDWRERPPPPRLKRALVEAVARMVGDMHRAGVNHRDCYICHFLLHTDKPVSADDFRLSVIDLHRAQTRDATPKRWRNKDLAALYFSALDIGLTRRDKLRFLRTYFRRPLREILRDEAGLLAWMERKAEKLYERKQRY
Experiment: crystal structure; selenomethionine WaaP-His co-purified with E. coli acyl-ACP; hanging drops at 4 °C, 100 mM HEPES-NaOH pH 7.4, 5% Jeffamine M-600; 2.5 Å
Details: both partners purified

B1: E. coli acylated acyl-carrier protein (acyl-ACP) (natural protein, UniProt P0A6A8 1-78, looked up)
chain: MSTIEERVKKIIGEQLGVKQEEVTNNASFVEDLGADSLDTVELVMALEEEFDTEIPDEEAEKITTVQAAIDYINGHQA
modifications: phosphopantetheine on S36 carrying a C16:0 (palmitoyl) or C18:1 acyl chain (palmitoyl modelled in the crystal); selenomethionine
notes: acyl carrier protein of E. coli, 77 amino acids as printed; In the in vitro synthesis experiment (functional row) the ACP was purified E. coli holo-ACP palmitoylated by V. harveyi AasS; Its construct is described only in the Supplementary Information; also called palmitoyl-ACP; source: endogenous, E. coli BL21(DE3)/pLysS, co-purified with WaaP-His
stoichiometry N: 1

From PMC6147952, “Acylated-acyl carrier protein stabilizes the Pseudomonas aeruginosa WaaP lipopolysaccharide heptose kinase” (Scientific Reports, 2018)
